“Also recorded” adds a separate entry of the source.
B1: S1D12: anti-tau clone from immunised sheep, SEQ ID NO: 32 (protein)
scFv: QVQLQESGPSLVKPSQTLSLTCTVSGFSLNNNAVGWVRQAPGKVPESLVGCSSDGTCYYNSALKSRLDITRDTSKNQISLSLSSVTTDDAAVYYCTRGHYSIYGYDYLGTIDYWGPGLLVTVSSEGKSSGASGESKVDDQAVLTQPSSVSGSLGQRVSITCSGSSSNVGGGNSVGWYQHLPGSGLKTIIYDTNSRPSGVPDRFSGSRSGNTATLTINSLQAEDEGDYYCVTGDSTTHDDLVGSGTRLTVLG
modifications: S1D12 amino acid sequence
B2: S1G2: anti-tau clone, SEQ ID NO: 81 (protein)
scFv: QVQLQESGPSLVKPSQTLSLTCTVSGFSLTSNSVGWVRQAPGKAPEWVAGIDTDGEEGYNPALNSRLSITRDTSKSQVSLSLSSVTSEDTAVYYCGRSYRADGLAYGYVQAIDYWGPGLLVTVSSEGKSSGASGESKVDDQAVVTQPSSVSGSLGQRVSITCSGSFIGISSVGWFQQLPGSGLRTIIVASDGRPSGVPDRFSMSKSGNTATLTISSLQAEDEADYFCGSSDRTPYTGVFGSGTRLTVLG
modifications: S1G2 amino acid sequence

Columns and labels:
[1] = Pharmacokinetic study of S1D12 mAb, single dose, plasma and brain (dGAE ligand binding ELISA); type: in vivo, mouse; settings: single dose 30 mg/kg i.p., NMRI mice, plasma
Description: For the PK study, a total of 42 female NMRI mice (Swiss-type mouse, Naval Medical Research Institute) aged 6 months were allocated into six groups according to sample collection time (Table 30 for group size). Animals were injected intraperitoneally with S1D12 (30 mg/kg) and sacrificed 24-, 48-, 72-hours and 7-, 14- and 31-days after injection to collect blood and brain samples. A control group was also included in which animals were sacrificed to collect blood and brain, but no test item was administered.
Blood samples were centrifuged to obtain plasma at 2000×g for 5 min at 6° C., and samples were stored at −20° C. After blood collection, each mouse was perfused with heparinized saline for 2-3 minutes and the entire brain removed rapidly and snap frozen in liquid nitrogen and stored at −80° C.
Briefly, dGAE (1 μg/mL) was used to coat ELISA plates and blocked with 2% Marvel. […] Following washing, HRP-conjugated anti-mouse IgG as detector was added, and the assay developed using TMB solution as normal. The absorbance at 450 nm was read using a Clariostar plate reader (BMG Labtech) and MARS Clariostar software used to calculate S1D12 concentration from a standard curve.
Average values from each group (representing a time point) was plotted (FIG. 10) and the in vivo half-life, Cmax and Tmax calculated by performing a non-compartmental analysis of the plasma data using the PKSolver2.0 software (FIG. 51, Table 31). […] Here a higher coating concertation of dGAE at 10 μg/ml was used to compete off antibody binding to tau present in the brain.

[2] = target: T1, dGAE (Homo sapiens, UniProt P10636); test: dGAE fibril assembly, transmission electron microscopy; type: biochemical; settings: dGAE:antibody 4:1 or 1:1, 700 rpm, 37° C., 3 days
T1 sequence (P10636 614-708): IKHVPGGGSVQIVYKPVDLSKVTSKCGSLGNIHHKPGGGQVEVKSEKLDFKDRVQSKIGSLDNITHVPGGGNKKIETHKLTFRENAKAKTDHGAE
Description: (§1) dGAE protein was diluted into 10 mM phosphate buffer, pH 7.4 (PB) with monoclonal antibody s1D12 at a ratio of 4:1 protein: Ab (100 μM dGAE+25 μM s1D12 and 10 μM dGAE+2.5 μM s1D12) or 1:1 (25 μM dGAE+25 μM s1D12).
(§2) As a positive control, dGAE was prepared at a final concentration of 10, 25 or 100 μM in 10 mM PB. Negative controls consisted of dGAE with a non-tau IgG antibody at a ratio of 4:1 (10 μM dGAE+2.5 μM anti-ovalbumin), or antibody alone (25 or 2.5 μM s1D12 and 2.5 μM anti-ovalbumin). Samples were agitated at 700 rpm at 37° C., for 3 days.
Transmission electron microscopy (TEM), circular dichroism (CD) and Thioflavin S (ThS) assays were performed as detailed in Al-Hilaly et, al. (2018) J. Mol. Biol. 430, 4119-4131. Briefly, TEM grids were prepared by adding 4 μL of sample to a carbon-coated grid followed by a wash with milli-Q filtered water then staining twice with 2% uranyl acetate. Grids were air dried and then imaged using a JEOL electron microscope operating at 80 kV.

[3] = target: T1, dGAE; test: dGAE fibril assembly, circular dichroism; type: biochemical; settings: 100 μM dGAE + 25 μM antibody (4:1), antibody spectrum subtracted
Description: as §1, §2
For CD, 60 μL sample was placed in a 0.1 mm quartz cuvette and placed into a JASCO spectropolarimeter. 100 μL ThS in 20 mM MOPS buffer was added to 50 μL of each sample to a final concentration of 20 μM, mixed well, incubated at room temperature for 10 minutes then fluorescence intensity measured in a Cary Eclipse spectrophotometer using an excitation wavelength of 440 nm. Baseline readings from 10 mM PB were subtracted from CD and ThS measurements.

[4] = target: hT40 (Homo sapiens, UniProt P10636); test: Sandwich ELISA, limits of detection (LoD) of antibody pairs; type: binding; settings: S1D12 mAb capture
Chain of hT40 (P10636 1-441 isoform P10636-8): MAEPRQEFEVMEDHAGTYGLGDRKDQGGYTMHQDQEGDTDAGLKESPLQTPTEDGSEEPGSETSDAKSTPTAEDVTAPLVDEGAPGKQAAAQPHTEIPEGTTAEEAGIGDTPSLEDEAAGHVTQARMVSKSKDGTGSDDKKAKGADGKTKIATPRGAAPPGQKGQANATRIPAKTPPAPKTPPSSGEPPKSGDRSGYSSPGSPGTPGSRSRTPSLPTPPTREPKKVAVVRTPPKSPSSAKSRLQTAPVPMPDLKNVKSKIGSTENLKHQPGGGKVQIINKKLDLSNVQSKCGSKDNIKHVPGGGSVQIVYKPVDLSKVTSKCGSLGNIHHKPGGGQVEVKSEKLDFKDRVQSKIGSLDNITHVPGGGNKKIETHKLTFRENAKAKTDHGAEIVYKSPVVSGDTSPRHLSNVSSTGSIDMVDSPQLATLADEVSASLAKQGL
Description: Full length tau (hT40), at 1 μg/ml starting concentration was added to designated wells and double diluted across rest of the plates and left to incubate at R/T for 1 h. A series of detection scAbs with varying epitope recognition properties were added at 10 μg/ml to designated wells (FIG. 22). For colourimetric detection HRP conjugated anti-HuCk secondary antibody was used and the resulting immunoreaction was developed and absorbance at 450 nm measured as described previously. Cut-off point for a positive binding event was an absorbance value of 0.3 following background subtraction. In order to enhance the assay sensitivity, a chemiluminescent detection method was adopted where 50 μL SuperSignal ELISA Femto Substrate (Thermo Scientific) was added to each well following incubation with anti-HuCK HRP antibody and subsequent washing. The luminescence was read using Clariostar Plus microplate reader. A further modification to this protocol was done where various detection scAbs were directly conjugated with HRP and detected using chemiluminescent protocol as before. The lowest levels of detection achieved using different detection scAbs and a comparison of colourimetric and chemiluminescent methods of detection are shown in Table 28
The assay was conducted using chemiluminescent protocol described above.

[5] = test system: tau protein in brain homogenate; test: Capture ELISA on transgenic mouse brain lysates; type: binding; settings: S1D12 mAb capture; WT, L1, L66+/- and L66+/+
Description: Mouse brain lysates were prepared from wildtype, Line 1, Line 66+/+ and Line 66+/− (Melis et al., 2015, all surplus from Charles River, part of study R0144). All animals were female, 7-8 months old except Line 66+/+ which were 5 months old. […] The L1 cDNA construct (FIG. 23) contains human tau cDNA coding for amino acid residues 296-390 with a signal sequence and related sequences in a murine Thy-1 expression cassette. For brain lysate preparation, half brains were sectioned into four and the individual sections were homogenised in 400 μl of ice cold RIPA buffer (Cell signalling Technology) containing protease and phosphatase inhibitors. Total protein concentrations for individual samples were established by BCA-assay and each sample was subsequently diluted to 1 mg/ml for future experiments.
For capture ELISA, 100 µL S1D12 capture mAb was used to coat a nunc 96 well Maxisorp plate at 1 μg/ml and incubated for 1 hour at 37° C. Plate was washed as previously and then blocked for 1 hour at 37° C., in 2% MPBS. Brain homogenate samples (50 ng total protein) from each mouse type were added to the first wells and double diluted across the plate in PBS. These samples were left to incubate at RT for 1 hour. Various detection scAbs encompassing epitopes of interest were then added to the plate at 1 μg/ml and incubated for 1 h at RT. […]

| Molecule | Tmax (time of peak plasma concentration) [1] | t1/2 (elimination half-life from plasma) ([1]; non-compartmental analysis) | Cmax ([1]; read-out: Cmax (peak plasma concentration)) | dGAE fibrils observed by TEM [2] | dGAE secondary structure by CD [3] | LoD direct HRP conjugation of detection scAb & chemiluminescence [4] | tau detection in mouse brain homogenate [5] |
| --- | --- | --- | --- | --- | --- | --- | --- |
| B1 | 24 h | 256.2 h | 1460 nM | no fibrils were present; also recorded: no fibril formation is observed | dGAE cannot assemble into β-sheet rich fibrils; also recorded: indicating that dGAE has not assembled into fibrils |  |  |
| B2 |  |  |  |  |  | 0.04 ng/mL | tau protein was detected in 50 μg of total brain protein in all four different sample types |
